This note sets out measurements from paper PMC7107572.

A short description of data set [1]: pyruvate kinase activity, HeLa lysate. To be noted: glycan gained; control: vector and OGTcd.
Data set [2] in a line: IP of HN-PKM2, anti-acetyl-lysine blot, 25 mM glucose. The note with it: glycan lost; control: PKM2wt.
The nature of data set [3]: residual medium glucose normalised to cell number. To be noted: glycan lost; control: PKM2wt cells.
Data set [4] is described as follows: LDH-coupled pyruvate kinase assay, PEP titration, HeLa. The note with it: glycan lost; control: PKM2wt.
Data set [5] in a line: sucrose density gradient ultracentrifugation, anti-Flag blot. The note with it: glycan lost; control: PKM2wt.
Data set [6] is described as follows: basal ECAR, Seahorse XF24. The note with it: glycan lost; control: PKM2wt cells.
The nature of data set [7]: exogenous PKM2 protein level in xenograft tumors. To be noted: glycan lost; control: PKM2wt tumors.

Take “pyruvate kinase M2 (PKM2): OGTwt overexpression”: the enzymatic_activity entry in data set [1] is given as “decreases”.
For the substance pyruvate kinase M2 (PKM2): S362A, the “other: OGA-induced lysine acetylation” value in data set [2] is given as “no change”. For the same substance, in data set [3], the “other: cellular glucose consumption” value is “decreases”. For the same substance, in data set [4], the enzymatic_activity entry was “increases”. In addition, the oligomerisation result in data set [5] is “increases”. The “other: glycolytic flux” value in data set [6] is reported as “decreases”. Besides, the expression_or_secretion result in data set [7] is reported as “no change”.
Consider pyruvate kinase M2 (PKM2): T365A, for which, in data set [3], the “other: cellular glucose consumption” value is reported as “decreases”. Moreover, the enzymatic_activity result in data set [4] was “increases”. The oligomerisation entry in data set [5] is “increases”. Moreover, the “other: glycolytic flux” value in data set [6] was “decreases”. Further, in data set [7], the expression_or_secretion entry was “no change”.
